Assay results: publication PMC7986808

T1: RH2, His-TF-RH2 (Medicago truncatula, UniProt A0A072TSA4 1-207)
T1 sequence: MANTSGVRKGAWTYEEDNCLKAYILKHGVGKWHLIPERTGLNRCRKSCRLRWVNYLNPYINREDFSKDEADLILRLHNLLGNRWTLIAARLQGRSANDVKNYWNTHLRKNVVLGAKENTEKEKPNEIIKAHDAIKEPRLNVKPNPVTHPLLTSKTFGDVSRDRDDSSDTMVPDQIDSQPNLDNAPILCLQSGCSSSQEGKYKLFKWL

B1: MtCHS probe (dsDNA)
DNA 1: TCAGACTCACATTAAAACTACAGTCTGTTGAGTTGTGCTATTATATTAAGAGAGACAAT
DNA 2: ATTGTCTCTCTTAATATAATAGCACAACTCAACAGACTGTAGTTTTAATGTGAGTCTGA
B2: MtANS probe (dsDNA)
DNA 1: CTATATATAAGAAGCTAGCTGCATACAACCATTTATTCACGTTTTGTGCTGTGCAATCA
DNA 2: TGATTGCACAGCACAAAACGTGAATAAATGGTTGTATGCAGCTAGCTTCTTATATATAG

Target: T1, RH2, His-TF-RH2
Experiment: EMSA

Row | Binder | binding result
1 | B1 | binds
2 | B2 | binds
